This is an account of results in patent publication US20250276075A1, “METHODS OF TREATING AXL-EXPRESSING CANCERS WITH ANTI-AXL ANTIBODIES, ANTIBODY FRAGMENTS AND THEIR IMMUNOCONJUGATES” (BIOATLA, INC., priority 2020, published 2025).

Where a chain is given by its changes, count along the chain named. Names may count otherwise.

The chains are these.
T1: Axl (Homo sapiens, UniProt P30530)
T1 sequence (P30530 26-451 limits assumed): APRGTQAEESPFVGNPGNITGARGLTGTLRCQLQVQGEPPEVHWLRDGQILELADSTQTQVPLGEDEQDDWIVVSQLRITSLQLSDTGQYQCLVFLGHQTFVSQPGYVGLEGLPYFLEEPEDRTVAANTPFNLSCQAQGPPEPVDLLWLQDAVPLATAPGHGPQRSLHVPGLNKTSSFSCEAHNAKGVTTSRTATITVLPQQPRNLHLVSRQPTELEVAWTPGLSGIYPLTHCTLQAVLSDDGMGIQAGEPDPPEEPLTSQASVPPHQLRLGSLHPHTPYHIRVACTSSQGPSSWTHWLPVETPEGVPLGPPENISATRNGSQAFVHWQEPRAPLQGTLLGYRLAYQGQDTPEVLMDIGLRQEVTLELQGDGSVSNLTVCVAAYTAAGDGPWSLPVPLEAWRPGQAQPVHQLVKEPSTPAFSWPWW

B1: HC-E102F (antibody, V domains shown)
VH: EVQLVQSGAEVKKPGATVKISCKVSGYSFTGHTMNWIRQPPGKGLEWIGLIKPSNGGTSYNQKFKGRVTISADKSISTAYLQWSSLKASDTAMYYCAHGHYFSYFAMDYWGQGTLVTVSS
VL: DIQMTQSPSSLSASVGDRVTITCKASQDVSSAVAWYQQKPGQAPRLLIYWASTRHTGVPSRFSGSGSGTEFTLTISSLQPDDFATYYCQEHFSTPLTFGQGTKVEIK
B2: HC-F105N (antibody, V domains shown)
VH: B1 VH with F102E, F105N
VL: B1 VL
B3: HC-E102A (antibody, V domains shown)
VH: B1 VH with F102A
VL: B1 VL
B4: HC-F105V (antibody, V domains shown)
VH: B1 VH with F102E, F105V
VL: B1 VL
B5: HC-W110N (antibody, V domains shown)
VH: B1 VH with F102E, W110N
VL: B1 VL
B6: HC-Y104P (antibody, V domains shown)
VH: B1 VH with F102E, Y104P
VL: B1 VL
B7: HC-F105S (antibody, V domains shown)
VH: B1 VH with F102E, F105S
VL: B1 VL
B8: HC-E102H (antibody, V domains shown)
VH: B1 VH with F102H
VL: B1 VL
B9: HC-T033I (antibody, V domains shown)
VH: B1 VH with T33I, F102E
VL: B1 VL
B10: HC-W110T (antibody, V domains shown)
VH: B1 VH with F102E, W110T
VL: B1 VL
B11: HC-E102G (antibody, V domains shown)
VH: B1 VH with F102G
VL: B1 VL
B12: HC-A106Y (antibody, V domains shown)
VH: B1 VH with F102E, A106Y
VL: B1 VL
B13: HC-A106L (antibody, V domains shown)
VH: B1 VH with F102E, A106L
VL: B1 VL
B14: HC-A106D (antibody, V domains shown)
VH: B1 VH with F102E, A106D
VL: B1 VL
B15: HC-E102D (antibody, V domains shown)
VH: B1 VH with F102D
VL: B1 VL
B16: HC-F105T (antibody, V domains shown)
VH: B1 VH with F102E, F105T
VL: B1 VL
B17: HC-W110R (antibody, V domains shown)
VH: B1 VH with F102E, W110R
VL: B1 VL
B18: HC-E102I (antibody, V domains shown)
VH: B1 VH with F102I
VL: B1 VL
B19: HC-A106G (antibody, V domains shown)
VH: B1 VH with F102E, A106G
VL: B1 VL
B20: HC-W110L (antibody, V domains shown)
VH: B1 VH with F102E, W110L
VL: B1 VL
B21: HC-E102M (antibody, V domains shown)
VH: B1 VH with F102M
VL: B1 VL

The target of one assay is Axl (UniProt P30530). Briefly: ELISA, 1:9 dilution.
Conditions: not given
(In an ELISA, binding on a coated surface is turned into a signal by an enzyme label.)
For B1, the Affinity ELISA CPE mutant ratio (1:9, pH 6.0/7.4) turned out to be 1.36.

For the molecule B2, the Affinity ELISA CPE mutant ratio (1:9, pH 6.0/7.4) was found to be 2.64.

As to B3, the Affinity ELISA CPE mutant ratio (1:9, pH 6.0/7.4) was 1.69.

As for B4, the Affinity ELISA CPE mutant ratio (1:9, pH 6.0/7.4) was determined as 2.8.

Regarding B5, the Affinity ELISA CPE mutant ratio (1:9, pH 6.0/7.4) was determined as 0.8.

B6: the Affinity ELISA CPE mutant ratio (1:9, pH 6.0/7.4) came out at 2.42.

As for B7, the Affinity ELISA CPE mutant ratio (1:9, pH 6.0/7.4) worked out at 4.54.

For B8, the Affinity ELISA CPE mutant ratio (1:9, pH 6.0/7.4) came out at 2.31.

In the case of B9, the Affinity ELISA CPE mutant ratio (1:9, pH 6.0/7.4) was 1.

Regarding B10, the Affinity ELISA CPE mutant ratio (1:9, pH 6.0/7.4) stood at 1.37.

As for B11, the Affinity ELISA CPE mutant ratio (1:9, pH 6.0/7.4) came to 2.68.

Consider B12, for which the Affinity ELISA CPE mutant ratio (1:9, pH 6.0/7.4) was 3.06.

On to B13, for which the Affinity ELISA CPE mutant ratio (1:9, pH 6.0/7.4) was determined as 1.61.

In the case of B14, the Affinity ELISA CPE mutant ratio (1:9, pH 6.0/7.4) stood at 2.51.

B15: the Affinity ELISA CPE mutant ratio (1:9, pH 6.0/7.4) was 2.85.

With B16, the Affinity ELISA CPE mutant ratio (1:9, pH 6.0/7.4) was found to be 4.02.

Turning to B17, the Affinity ELISA CPE mutant ratio (1:9, pH 6.0/7.4) was 1.06.

In the case of B18, the Affinity ELISA CPE mutant ratio (1:9, pH 6.0/7.4) stood at 1.7.

Take B19: the Affinity ELISA CPE mutant ratio (1:9, pH 6.0/7.4) is 2.2.

B20: the Affinity ELISA CPE mutant ratio (1:9, pH 6.0/7.4) amounted to 0.924.

B21: the Affinity ELISA CPE mutant ratio (1:9, pH 6.0/7.4) was found to be 2.36.

A further assay deals with Axl (UniProt P30530). Kind of assay: ELISA, 1:3 dilution.
Conditions: not given
Take B1: the Affinity ELISA CPE mutant ratio (1:3, pH 6.0/7.4) was found to be 1.88.

As for B2, the Affinity ELISA CPE mutant ratio (1:3, pH 6.0/7.4) was 2.36.

Turning to B3, the Affinity ELISA CPE mutant ratio (1:3, pH 6.0/7.4) was determined as 1.54.

With B4, the Affinity ELISA CPE mutant ratio (1:3, pH 6.0/7.4) was determined as 2.43.

For the molecule B5, the Affinity ELISA CPE mutant ratio (1:3, pH 6.0/7.4) turned out to be 4.3.

In the case of B6, the Affinity ELISA CPE mutant ratio (1:3, pH 6.0/7.4) was found to be 2.54.

For the molecule B7, the Affinity ELISA CPE mutant ratio (1:3, pH 6.0/7.4) was found to be 3.9.

For B8, the Affinity ELISA CPE mutant ratio (1:3, pH 6.0/7.4) was 2.08.

Regarding B9, the Affinity ELISA CPE mutant ratio (1:3, pH 6.0/7.4) stood at 1.59.

As for B10, the Affinity ELISA CPE mutant ratio (1:3, pH 6.0/7.4) was found to be 7.47.

As to B11, the Affinity ELISA CPE mutant ratio (1:3, pH 6.0/7.4) amounted to 1.8.

With B12, the Affinity ELISA CPE mutant ratio (1:3, pH 6.0/7.4) was found to be 3.29.

Turning to B13, the Affinity ELISA CPE mutant ratio (1:3, pH 6.0/7.4) amounted to 21.5.

For B14, the Affinity ELISA CPE mutant ratio (1:3, pH 6.0/7.4) was found to be 3.39.

Take B15: the Affinity ELISA CPE mutant ratio (1:3, pH 6.0/7.4) came out at 2.67.

Regarding B16, the Affinity ELISA CPE mutant ratio (1:3, pH 6.0/7.4) was 3.46.

Turning to B17, the Affinity ELISA CPE mutant ratio (1:3, pH 6.0/7.4) came to 5.99.

For the molecule B18, the Affinity ELISA CPE mutant ratio (1:3, pH 6.0/7.4) worked out at 2.02.

Turning to B19, the Affinity ELISA CPE mutant ratio (1:3, pH 6.0/7.4) is 1.52.

On to B20, for which the Affinity ELISA CPE mutant ratio (1:3, pH 6.0/7.4) came out at 8.22.

In the case of B21, the Affinity ELISA CPE mutant ratio (1:3, pH 6.0/7.4) amounted to 2.08.

Another assay addresses T1, Axl. Briefly: Affinity ELISA of CPE mutant antibodies for binding to Axl at pH 6.0 over pH 7.4. The conditions noted are these: heavy chain variable region mutants; 1:3 dilution. Put shortly: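 Single-point mutant anti-Axl antibody library (CPE) screened by ELISA for binding at pH 6.0 versus pH 7.4, at 1:3 and 1:9 antibody dilutions, in serum with FLAG-tag detection and carbonate (Krebs-Ringer) buffer. Selection criterion: pH 6.0/pH 7.4 binding ratio ≥1.5 at either dilution.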
For B1, the “Affinity ELISA CPE mutant ratio (1:3, pH 6.0/7.4)” value is listed as 1.879.

Consider B2, for which the “Affinity ELISA CPE mutant ratio (1:3, pH 6.0/7.4)” value is reported as 2.364.

With B3, the “Affinity ELISA CPE mutant ratio (1:3, pH 6.0/7.4)” value was 1.538.

For B4, the “Affinity ELISA CPE mutant ratio (1:3, pH 6.0/7.4)” value stood at 2.429.

Take B5: the “Affinity ELISA CPE mutant ratio (1:3, pH 6.0/7.4)” value came out at 4.304.

As for B6, the “Affinity ELISA CPE mutant ratio (1:3, pH 6.0/7.4)” value was 2.535.

With B7, the “Affinity ELISA CPE mutant ratio (1:3, pH 6.0/7.4)” value amounted to 3.898.

For B8, the “Affinity ELISA CPE mutant ratio (1:3, pH 6.0/7.4)” value was determined as 2.076.

Regarding B9, the “Affinity ELISA CPE mutant ratio (1:3, pH 6.0/7.4)” value worked out at 1.594.

On to B10, for which the “Affinity ELISA CPE mutant ratio (1:3, pH 6.0/7.4)” value is recorded as 7.469.

Turning to B11, the “Affinity ELISA CPE mutant ratio (1:3, pH 6.0/7.4)” value was 1.798.

Regarding B12, the “Affinity ELISA CPE mutant ratio (1:3, pH 6.0/7.4)” value was 3.293.

As to B13, the “Affinity ELISA CPE mutant ratio (1:3, pH 6.0/7.4)” value stood at 21.538.

As to B14, the “Affinity ELISA CPE mutant ratio (1:3, pH 6.0/7.4)” value was 3.389.

B15: the “Affinity ELISA CPE mutant ratio (1:3, pH 6.0/7.4)” value is 2.674.

For B16, the “Affinity ELISA CPE mutant ratio (1:3, pH 6.0/7.4)” value amounted to 3.463.

As to B17, the “Affinity ELISA CPE mutant ratio (1:3, pH 6.0/7.4)” value stood at 5.991.

With B18, the “Affinity ELISA CPE mutant ratio (1:3, pH 6.0/7.4)” value was 2.016.

Consider B19, for which the “Affinity ELISA CPE mutant ratio (1:3, pH 6.0/7.4)” value is 1.519.

For B20, the “Affinity ELISA CPE mutant ratio (1:3, pH 6.0/7.4)” value stood at 8.220.

Take B21: the “Affinity ELISA CPE mutant ratio (1:3, pH 6.0/7.4)” value came to 2.079.

Still in this assay, the particulars now being: heavy chain variable region mutants; 1:9 dilution.
In the case of B1, the “Affinity ELISA CPE mutant ratio (1:9, pH 6.0/7.4)” value came out at 1.363.

In the case of B2, the “Affinity ELISA CPE mutant ratio (1:9, pH 6.0/7.4)” value is 2.642.

For the molecule B3, the “Affinity ELISA CPE mutant ratio (1:9, pH 6.0/7.4)” value is recorded as 1.687.

Consider B4, for which the “Affinity ELISA CPE mutant ratio (1:9, pH 6.0/7.4)” value is 2.801.

Consider B5, for which the “Affinity ELISA CPE mutant ratio (1:9, pH 6.0/7.4)” value is 0.800.

Turning to B6, the “Affinity ELISA CPE mutant ratio (1:9, pH 6.0/7.4)” value is reported as 2.416.

As to B7, the “Affinity ELISA CPE mutant ratio (1:9, pH 6.0/7.4)” value worked out at 4.545.

Consider B8, for which the “Affinity ELISA CPE mutant ratio (1:9, pH 6.0/7.4)” value turned out to be 2.315.

For the molecule B9, the “Affinity ELISA CPE mutant ratio (1:9, pH 6.0/7.4)” value was 1.005.

On to B10, for which the “Affinity ELISA CPE mutant ratio (1:9, pH 6.0/7.4)” value is 1.372.

On to B11, for which the “Affinity ELISA CPE mutant ratio (1:9, pH 6.0/7.4)” value worked out at 2.677.

With B12, the “Affinity ELISA CPE mutant ratio (1:9, pH 6.0/7.4)” value was determined as 3.060.

Regarding B13, the “Affinity ELISA CPE mutant ratio (1:9, pH 6.0/7.4)” value came to 1.613.

As to B14, the “Affinity ELISA CPE mutant ratio (1:9, pH 6.0/7.4)” value was found to be 2.506.

For B15, the “Affinity ELISA CPE mutant ratio (1:9, pH 6.0/7.4)” value stood at 2.853.

For B16, the “Affinity ELISA CPE mutant ratio (1:9, pH 6.0/7.4)” value was 4.021.

Regarding B17, the “Affinity ELISA CPE mutant ratio (1:9, pH 6.0/7.4)” value turned out to be 1.062.

Regarding B18, the “Affinity ELISA CPE mutant ratio (1:9, pH 6.0/7.4)” value was determined as 1.696.

With B19, the “Affinity ELISA CPE mutant ratio (1:9, pH 6.0/7.4)” value was 2.196.

As to B20, the “Affinity ELISA CPE mutant ratio (1:9, pH 6.0/7.4)” value is 0.924.

B21: the “Affinity ELISA CPE mutant ratio (1:9, pH 6.0/7.4)” value came out at 2.363.
